Assay results published in patent US20220002429A1, “TUMOR CELL AGGREGATION INHIBITORS' FOR TREATING CANCER” (Northwestern University, priority 2018, published 2022).

Tested on: TN1 PDX tumor cells
Assay: ex vivo aggregation (clustering) assay of dissociated PDX tumor cells, IncuCyte time-lapse imaging
Type: cell-based, human
Conditions: media supplemented with EGF (10 ng/ml)
Protocol: Cell clustering assay. Freshly dissociated primary tumor cells in single cell suspension were seeded in collagen type I-coated 96-well plates. The plates were put into the IncuCyte live cell imaging system (Essen BioScience), and live images were taken every 2-4 h for up to one week. The cluster number and size were analyzed by Incucyte ZOOM software (Essen BioScience). In specific experiments, primary tumor cells might be sorted based on the expression of CD44 prior to seeding. In other experiments, seeded tumor cells might be transfected with siRNAs (100 nM) or treated with various inhibitors during the clustering assays. For cell viability analysis during clustering, the IncuCyte Cytotox Red reagent (Essen BioScience) was added to the medium according to the manufacturer's instructions.

B1: EGF: epidermal growth factor supplemented to culture media at 10 ng/ml (protein, UniProt P01133 23-1207, looked up)
Pro-epidermal growth factor: PQHWSCPEGTLAGNGNSTCVGPAPFLIFSHGNSIFRIDTEGTNYEQLVVDAGVSVIMDFHYNEKRIYWVDLERQLLQRVFLNGSRQERVCNIEKNVSGMAINWINEEVIWSNQQEGIITVTDMKGNNSHILLSALKYPANVAVDPVERFIFWSSEVAGSLYRADLDGVGVKALLETSEKITAVSLDVLDKRLFWIQYNREGSNSLICSCDYDGGSVHISKHPTQHNLFAMSLFGDRIFYSTWKMKTIWIANKHTGKDMVRINLHSSFVPLGELKVVHPLAQPKAEDDTWEPEQKLCKLRKGNCSSTVCGQDLQSHLCMCAEGYALSRDRKYCEDVNECAFWNHGCTLGCKNTPGSYYCTCPVGFVLLPDGKRCHQLVSCPRNVSECSHDCVLTSEGPLCFCPEGSVLERDGKTCSGCSSPDNGGCSQLCVPLSPVSWECDCFPGYDLQLDEKSCAASGPQPFLLFANSQDIRHMHFDGTDYGTLLSQQMGMVYALDHDPVENKIYFAHTALKWIERANMDGSQRERLIEEGVDVPEGLAVDWIGRRFYWTDRGKSLIGRSDLNGKRSKIITKENISQPRGIAVHPMAKRLFWTDTGINPRIESSSLQGLGRLVIASSDLIWPSGITIDFLTDKLYWCDAKQSVIEMANLDGSKRRRLTQNDVGHPFAVAVFEDYVWFSDWAMPSVMRVNKRTGKDRVRLQGSMLKPSSLVVVHPLAKPGADPCLYQNGGCEHICKKRLGTAWCSCREGFMKASDGKTCLALDGHQLLAGGEVDLKNQVTPLDILSKTRVSEDNITESQHMLVAEIMVSDQDDCAPVGCSMYARCISEGEDATCQCLKGFAGDGKLCSDIDECEMGVPVCPPASSKCINTEGGYVCRCSEGYQGDGIHCLDIDECQLGEHSCGENASCTNTEGGYTCMCAGRLSEPGLICPDSTPPPHLREDDHHYSVRNSDSECPLSHDGYCLHDGVCMYIEALDKYACNCVVGYIGERCQYRDLKWWELRHAGHGQQQKVIVVAVCVVVLVMLLLLSLWGAHYYRTQKLLSKNPKNPYEESSRDVRSRRPADTEDGMSSCPQPWFVVIKEHQDLKNGGQPVAGEDGQAADGSMQPTSWRQEPQLCGMGTEQGCWIPVSSDKGSCPQVMERSFHMPSYGTQTLEGGVEKPHSLLSANPLWQQRALDPPHQMELTQ
modifications: Pro-epidermal growth factor
notes: epidermal growth factor supplemented to culture media at 10 ng/ml
B1 was tested, and the “cluster formation of TN primary tumor cells” value was “increased cluster formation”.
